# T1: recombinant human sPLA2-IIA N1A mutant (human, UniProt P14555 22-144)
# T1 construct: also called N1A sPLA2-IIA mutant
# T1 sequence: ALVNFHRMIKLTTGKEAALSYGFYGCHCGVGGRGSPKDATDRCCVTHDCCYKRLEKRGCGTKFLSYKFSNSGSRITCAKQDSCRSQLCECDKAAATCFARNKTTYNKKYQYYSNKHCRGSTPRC
# B1: monoclonal anti-sPLA2-IIA antibody #9C8 (antibody, IgG1, V domains shown)
# VH: DVELVESGGGLVKLGGSLKLSCAASGFTFSSYYMSWVRQTPEKRLELVAAINSNGGSTYYPDTVKGRFTISRDNAKNTLYLQMSSLKSEDTALYYCARQGYGNFFDYWGQGTTLTVSS
# VL: DVVMTQTPLSLPVSLGDQASISCRSSQSIVHSNGNTYLYWYLQKPGQSPKLLIYRVSNRFSGVPDRFSGSGSGTDFTLKISRVEAEDMGVYYCFQGTHVPRTFGGGTNLEIKR
# notes: also called 9C8 antibody
# B2: biotinylated monoclonal antibody #9C8 (antibody, mouse IgG1, V domains shown)
# VH: B1 VH
# VL: B1 VL
# modifications: biotinylated (Pierce kit ref. 21435), sites not stated
# notes: also called biotinylated #9C8
# B3: monoclonal anti-sPLA2-IIA antibody #6G2 (antibody, IgG1, V domains shown)
# VH: QVQLQQSGAELVKPGASVKLSCKASGYTFTSYDINWVRQRPEQGLEWIGWIFPGDGSTEYNEKFKGKATLTTDKSSSTAYMQLSRLTSEDSAVYFCARWGITAFPLFDYWGQGTALTVSS
# VL: DIVLTQSPASLAVSLGQRATISCRASESVDYDGDSYMNWYQQKPGQPPKLLIYAASNLESGIPARFSGSGSGTDFTLNIHPVEEEDAATYYCLQSNEAPWTFGGGTKLEIKR
# notes: also called 6G2 antibody
# B4: biotinylated monoclonal antibody #6G2 (antibody, mouse IgG1, V domains shown)
# VH: B3 VH
# VL: B3 VL
# modifications: biotinylated (Pierce kit ref. 21435), sites not stated
# notes: also called #6G2-Biot; 6G2-biot
# Experiments:
# [1] = molecular target: T1, recombinant human sPLA2-IIA N1A mutant; assay: indirect ELISA on coated sPLA2-IIA N1A, anti-mouse IgG-HRP detection, one-site saturation fit
# [2] = molecular target: T1, recombinant human sPLA2-IIA N1A mutant; assay: indirect ELISA on coated sPLA2-IIA N1A (50 ng/well), one-site saturation fit, relative Kd
# [3] = molecular target: T1, recombinant human sPLA2-IIA N1A mutant; assay: indirect ELISA on coated sPLA2-IIA N1A, streptavidin-HRP detection, one-site saturation fit
Binder,Kd [1],Kd [2],Kd [3]
B1,1.17 nM,1.71 nM,
B2,,,3.34 nM
B3,0.0817 nM,0.124 nM,
B4,,,0.22 nM

# From patent US20150086564A1 (CENTRE NATIONAL DE LA RECHERCHE SCIENTIFIQUE CNRS, published 2015)
